According to the supplement of paper PMC10567573:

B1: TBX5 (parent)
chain: YQNHKITQLKIENNPFAKGFRGSD

Variants of: B1
Assay: protein stability index of a GFP-peptide fusion (GPS, HEK-293T) (PSI 1-6); higher = more stable
Conditions: c terminus: a fixed tail appended
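Also: lentivirally expressed fusions sorted by FACS into six bins by GFP to DsRed ratio, PSI derived from sequencing read proportions per bin multiplied by bin number.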

**Q.** With YQNMKITQLKIENNPFAKGFRGSD [H4M] as the variant, how does the protein stability index read?
**A.** 2.49

**Q.** With YQNSKITQLKIENNPFAKGFRGSD [H4S] as the variant, how does the protein stability index read?
**A.** 2.62

**Q.** Which protein stability index does the source give for YQNEKITQLKIENNPFAKGFRGSD [H4E] here?
**A.** 3.19

**Q.** For YQNNKITQLKIENNPFAKGFRGSD [H4N], which protein stability index is on record?
**A.** 2.87

**Q.** Which protein stability index does the source give for YQNLKITQLKIENNPFAKGFRGSD [H4L] here?
**A.** 3.06

**Q.** Which protein stability index does the source give for YQNPKITQLKIENNPFAKGFRGSD [H4P] here?
**A.** 2.58

**Q.** With YQNWKITQLKIENNPFAKGFRGSD [H4W] as the variant, how does the protein stability index read?
**A.** 2.89

**Q.** For YQNAKITQLKIENNPFAKGFRGSD [H4A], which protein stability index is on record?
**A.** 2.52

**Q.** With YQNFKITQLKIENNPFAKGFRGSD [H4F] as the variant, how does the protein stability index read?
**A.** 1.89

**Q.** With YQNDKITQLKIENNPFAKGFRGSD [H4D] as the variant, how does the protein stability index read?
**A.** 3.52

**Q.** For YQNYKITQLKIENNPFAKGFRGSD [H4Y], which protein stability index is on record?
**A.** 2.15

**Q.** For YQNGKITQLKIENNPFAKGFRGSD [H4G], which protein stability index is on record?
**A.** 2.57

**Q.** With YQNHKITQLKIENNPFAKQFRGSD [G19Q] as the variant, how does the protein stability index read?
**A.** 3.1

**Q.** With YQNHKITQLKIENNPFAKEFRGSD [G19E] as the variant, how does the protein stability index read?
**A.** 3.99

**Q.** Which protein stability index does the source give for YQNHKITQLKIENNPFAKFFRGSD [G19F] here?
**A.** 2.16

**Q.** With YQNHKITQLKIENNPFAKRFRGSD [G19R] as the variant, how does the protein stability index read?
**A.** 2.22

**Q.** Which protein stability index does the source give for YQNHKITQLKIENNPFAKAFRGSD [G19A] here?
**A.** 2.75

**Q.** With YQNHKITQLKIENNPFAKNFRGSD [G19N] as the variant, how does the protein stability index read?
**A.** 2.19

**Q.** With YQNHKITQLKIENNPFAKPFRGSD [G19P] as the variant, how does the protein stability index read?
**A.** 2.85

**Q.** For YQNHKITQLKIENNPFAKCFRGSD [G19C], which protein stability index is on record?
**A.** 1.74

**Q.** For YQNHKITQLKIENNPFAKGFRGVD [S23V], which protein stability index is on record?
**A.** 2.35

**Q.** Which protein stability index does the source give for YQNHKITQLKIENNPFAKGFRGMD [S23M] here?
**A.** 2.18

**Q.** Which protein stability index does the source give for YQNHKITQLKIENNPFAKGFRGTD [S23T] here?
**A.** 2.3

**Q.** With YQNHKITQLKIENNPFAKGFRGID [S23I] as the variant, how does the protein stability index read?
**A.** 2.12

**Q.** With YQNHKITQLKIENNPFAKGFRGQD [S23Q] as the variant, how does the protein stability index read?
**A.** 2.71

**Q.** Which protein stability index does the source give for YQNHKITQLKIENNPFAKGFQGSD [R21Q] here?
**A.** 2.57

**Q.** For YQNHKITQLKIENNPFAKGFDGSD [R21D], which protein stability index is on record?
**A.** 2.95

**Q.** For YQNHKITQLKIENNPFAKGFNGSD [R21N], which protein stability index is on record?
**A.** 2.61

**Q.** Which protein stability index does the source give for YQNHKITQLKIENNPFAKGFKGSD [R21K] here?
**A.** 2.64

**Q.** With YQNHKITQLKIENNPFAKGFSGSD [R21S] as the variant, how does the protein stability index read?
**A.** 2.76

**Q.** Which protein stability index does the source give for YQNHKITQLKIENNPFAKGFWGSD [R21W] here?
**A.** 1.8

**Q.** Which protein stability index does the source give for YQNHKITQLKIENNPFAKGFRLSD [G22L] here?
**A.** 2.02

**Q.** Which protein stability index does the source give for YQNHKITQLKIENNPFAKGFRASD [G22A] here?
**A.** 2.37

**Q.** Which protein stability index does the source give for YQNHKITQLKIENNPFAKGFRQSD [G22Q] here?
**A.** 2.83

**Q.** With YQNHKITQLKIENNPFAKGFRHSD [G22H] as the variant, how does the protein stability index read?
**A.** 2.46

**Q.** Which protein stability index does the source give for YQNHKITQLKIENNPFAKGFRYSD [G22Y] here?
**A.** 2.63

**Q.** Which protein stability index does the source give for YQNHKITQLKIENNPFAKGFRMSD [G22M] here?
**A.** 2.49

**Q.** Which protein stability index does the source give for YQNHKITQLKIENNPFAKGFRVSD [G22V] here?
**A.** 2.32

**Q.** With YQNHKITQLKIENNPFAKGFRWSD [G22W] as the variant, how does the protein stability index read?
**A.** 1.76

**Q.** Which protein stability index does the source give for YQNHKITQDKIENNPFAKGFRGSD [L9D] here?
**A.** 3.21

**Q.** For YQNHKITQVKIENNPFAKGFRGSD [L9V], which protein stability index is on record?
**A.** 4.05

**Q.** With YQNHKITQGKIENNPFAKGFRGSD [L9G] as the variant, how does the protein stability index read?
**A.** 2.35

**Q.** Which protein stability index does the source give for YQNHKITQWKIENNPFAKGFRGSD [L9W] here?
**A.** 1.71

**Q.** With YQNHKITQHKIENNPFAKGFRGSD [L9H] as the variant, how does the protein stability index read?
**A.** 2.38

**Q.** Which protein stability index does the source give for YQNHKITQKKIENNPFAKGFRGSD [L9K] here?
**A.** 2.81

**Q.** For YQNHKITQMKIENNPFAKGFRGSD [L9M], which protein stability index is on record?
**A.** 2.58

**Q.** With YQNHKITQLKIEINPFAKGFRGSD [N13I] as the variant, how does the protein stability index read?
**A.** 1.51

**Q.** With YQNHKITQLKIEWNPFAKGFRGSD [N13W] as the variant, how does the protein stability index read?
**A.** 2.09

**Q.** For YQNHKITQLKIESNPFAKGFRGSD [N13S], which protein stability index is on record?
**A.** 2.37

**Q.** For YQNHKITQLKIETNPFAKGFRGSD [N13T], which protein stability index is on record?
**A.** 2.25

**Q.** For YQNHKITQLKIEVNPFAKGFRGSD [N13V], which protein stability index is on record?
**A.** 1.81

**Q.** Which protein stability index does the source give for YQNHKITQLKIEMNPFAKGFRGSD [N13M] here?
**A.** 2.29

**Q.** For YQNHKITQLKIENNPCAKGFRGSD [F16C], which protein stability index is on record?
**A.** 3.17

**Q.** Which protein stability index does the source give for YQNHKITQLKIENNPQAKGFRGSD [F16Q] here?
**A.** 3.44

**Q.** With YQNHKITQLKIENNPTAKGFRGSD [F16T] as the variant, how does the protein stability index read?
**A.** 3.47

**Q.** For YQNHKITQLKIENNPWAKGFRGSD [F16W], which protein stability index is on record?
**A.** 1.93

**Q.** For YQNHKITQLKIENNPEAKGFRGSD [F16E], which protein stability index is on record?
**A.** 3.64

**Q.** Which protein stability index does the source give for YQNHKITQLKIENNPDAKGFRGSD [F16D] here?
**A.** 3.52

**Q.** For YQNHKITQLKIENNPNAKGFRGSD [F16N], which protein stability index is on record?
**A.** 3.48

**Q.** With YQNHKITQLKIENNPIAKGFRGSD [F16I] as the variant, how does the protein stability index read?
**A.** 3

**Q.** Which protein stability index does the source give for YQNHKITQLKIENNPRAKGFRGSD [F16R] here?
**A.** 3.16

**Q.** Which protein stability index does the source give for YQNHKITQLKIENNPPAKGFRGSD [F16P] here?
**A.** 3.93

**Q.** With YQNHKITQLKIENNPAAKGFRGSD [F16A] as the variant, how does the protein stability index read?
**A.** 3.12

**Q.** For YQNHKITQLKIENNPVAKGFRGSD [F16V], which protein stability index is on record?
**A.** 2.73

**Q.** With YQNHKSTQLKIENNPFAKGFRGSD [I6S] as the variant, how does the protein stability index read?
**A.** 3.04

**Q.** Which protein stability index does the source give for YQNHKNTQLKIENNPFAKGFRGSD [I6N] here?
**A.** 3.09

**Q.** Which protein stability index does the source give for YQNHKMTQLKIENNPFAKGFRGSD [I6M] here?
**A.** 2.7

**Q.** Which protein stability index does the source give for YQNHKFTQLKIENNPFAKGFRGSD [I6F] here?
**A.** 2.45

**Q.** For YQNHKLTQLKIENNPFAKGFRGSD [I6L], which protein stability index is on record?
**A.** 2.45

**Q.** With YQNHKPTQLKIENNPFAKGFRGSD [I6P] as the variant, how does the protein stability index read?
**A.** 2.8

**Q.** For YQCHKITQLKIENNPFAKGFRGSD [N3C], which protein stability index is on record?
**A.** 1.75

**Q.** With YQLHKITQLKIENNPFAKGFRGSD [N3L] as the variant, how does the protein stability index read?
**A.** 2.07

**Q.** For YQGHKITQLKIENNPFAKGFRGSD [N3G], which protein stability index is on record?
**A.** 2.26

**Q.** For YQTHKITQLKIENNPFAKGFRGSD [N3T], which protein stability index is on record?
**A.** 2.42

**Q.** For YQQHKITQLKIENNPFAKGFRGSD [N3Q], which protein stability index is on record?
**A.** 2.93

**Q.** For YQFHKITQLKIENNPFAKGFRGSD [N3F], which protein stability index is on record?
**A.** 2.23

**Q.** For YQWHKITQLKIENNPFAKGFRGSD [N3W], which protein stability index is on record?
**A.** 1.89

**Q.** Which protein stability index does the source give for YQPHKITQLKIENNPFAKGFRGSD [N3P] here?
**A.** 2.57

**Q.** For YQEHKITQLKIENNPFAKGFRGSD [N3E], which protein stability index is on record?
**A.** 3.33

**Q.** Which protein stability index does the source give for YQKHKITQLKIENNPFAKGFRGSD [N3K] here?
**A.** 2.64

**Q.** For YQNHKITQLKIENNPFAIGFRGSD [K18I], which protein stability index is on record?
**A.** 2.49

**Q.** Which protein stability index does the source give for YQNHKITQLKIENNPFARGFRGSD [K18R] here?
**A.** 2.77

**Q.** Which protein stability index does the source give for YQNHKITQLKIENNPFATGFRGSD [K18T] here?
**A.** 1.67

**Q.** Which protein stability index does the source give for YQNHKITQLKIENNPFANGFRGSD [K18N] here?
**A.** 2.23

**Q.** For YQNHKITQLKIENNPFAAGFRGSD [K18A], which protein stability index is on record?
**A.** 2.24

**Q.** With YQNHKITQLKIENNPFAFGFRGSD [K18F] as the variant, how does the protein stability index read?
**A.** 1.7

**Q.** Which protein stability index does the source give for YQNHKITQLKIENNPFACGFRGSD [K18C] here?
**A.** 1.36

**Q.** For YQNHKITQLKIENNPFADGFRGSD [K18D], which protein stability index is on record?
**A.** 2.16

**Q.** For YQNHKITQLKIENNPFASGFRGSD [K18S], which protein stability index is on record?
**A.** 2.31

**Q.** Which protein stability index does the source give for YQNHKITQLKIENNPFAHGFRGSD [K18H] here?
**A.** 2.09

**Q.** Which protein stability index does the source give for YQNHKITQLKIENNPFAEGFRGSD [K18E] here?
**A.** 3.08

**Q.** Which protein stability index does the source give for IQNHKITQLKIENNPFAKGFRGSD [Y1I] here?
**A.** 3.32

**Q.** For WQNHKITQLKIENNPFAKGFRGSD [Y1W], which protein stability index is on record?
**A.** 2.92

**Q.** Which protein stability index does the source give for MQNHKITQLKIENNPFAKGFRGSD [Y1M] here?
**A.** 3.79
